The chains are these.
B1: Azoarcus group I ribozyme (parent)
chain: GUGCCUUGCGCCGGGAAACCACGCAAGGGAUGGUGUCAAAUUCGGCGAAACCUAAGCGCCCGCCCGGGCGUAUGGCAACGCCGAGCCAAGCUUCGGCGCCUGCGCCGAUGAAGGUGUAGAGACUAGACGGCACCCACCUAAGGCAAACGCUAUGGUGAAGGCAUAGUCCAGGGAGUGGCGAAAGUCACACAAACCGG

The variants in this data set derive from B1. As to the kind of experiment: reverse-splicing fitness (ratio to wild type); higher = more active; in vitro selection; Mg2+ level not given. Summed up:
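An in vitro group I ribozyme library with randomized positions was T7-transcribed and gel-purified. In triplicate, 10 pmol RNA in EPPS pH 7.5 was reacted with 50 pmoles of a 30-nt RNA substrate for 1 h at 37 °C across several added MgCl2 levels (1–48 mM), then stopped with EDTA. Products were reverse transcribed from a substrate-complementary primer, PCR-amplified and sequenced (HiSeq 4000). Fitness is a variant's read proportion after selection over that before, normalised to wild type.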
On to C82U A111G A120C A145C C150A C169G, for which the reverse-splicing fitness came to 0.00759.
On to C82U A111G A120C A145C C150A C169A, for which the reverse-splicing fitness amounted to 0.00689.
On to C82U A111G A120C A145C C150A C169U, for which the reverse-splicing fitness stood at 0.00924.
C82U A111G A120C A145G C150A: the reverse-splicing fitness was found to be 0.0129.
For the variant C82U A111G A120C A145G C150G, the reverse-splicing fitness is 0.00985.
Regarding C82U A111C A145C C150G C169A U176G, the reverse-splicing fitness is 0.00657.
The figure for C82U A111C A145C C150G C169A U176C is 0.0077.
The figure for C82U A111C A145C C150G C169A U176A is 0.00873; for C82U A111C A145C C150U C169G U176C it is 0.0168; for C82U A111C A145C C150U C169G U176A it is 0.0257.
With C82U A111C A145C C150U C169G U176G, the reverse-splicing fitness came to 0.0077.
Consider C82U A111C A145G C150U U176C, for which the reverse-splicing fitness was found to be 0.085.
The figure for C82U A111C A145G C150U U176G is 0.0161.
The figure for C82U A111C A145G C150U U176A is 0.0576; for C82U A111G A120C A145C C150A C169U U176A it is 0.0146; for C82U A111G A120C A145C C150A C169U U176C it is 0.0104.
Regarding C82U A111G A120C A145C C150A C169U U176G, the reverse-splicing fitness came out at 0.00393.
Take C82U A111C C150G C169U: the reverse-splicing fitness turned out to be 0.00902.
The figure for C82U A111C C150G C169G is 0.00661.
Consider C82U A111C C150G C169A, for which the reverse-splicing fitness came out at 0.00807.
As to C82U A111C C169G U176G, the reverse-splicing fitness was 0.007.
The figure for C82U A111C C169G U176C is 0.024; for C82U A111C C169G U176A it is 0.0181; for C82U A111C C150U C169A U176C it is 0.0134.
Turning to C82U A111C C150U C169A U176A, the reverse-splicing fitness came out at 0.0124.
The figure for C82U A111C C150U C169A U176G is 0.008; for C82U A111G A120C A145C C150G C169U U176A it is 0.00787; for C82U A111G A120C A145C C150G C169U U176G it is 0.00424.
The figure for C82U A111G A120C A145C C150G C169U U176C is 0.0112; for C82U A111C A145U C169G U176G it is 0.00667.
The figure for C82U A111C A145U C169G U176A is 0.0145; for C82U A111C A145U C169G U176C it is 0.0162; for C82U A111C A145G C150G C169U U176C it is 0.00994.
With C82U A111C A145G C150G C169U U176G, the reverse-splicing fitness stood at 0.0073.
The figure for C82U A111C A145G C150G C169U U176A is 0.0102; for C82U A111C A145C C169G U176G it is 0.00669; for C82U A111C A145C C169G U176A it is 0.0274.
The figure for C82U A111C A145C C169G U176C is 0.0207.
Consider C82U A111C A145U C150A C169G U176C, for which the reverse-splicing fitness is 0.0178.
The figure for C82U A111C A145U C150A C169G U176G is 0.00796.
C82U A111C A145U C150A C169G U176A: the reverse-splicing fitness was found to be 0.0138.
On to C82U A111C A145U C169A U176A, for which the reverse-splicing fitness was 0.0129.
The figure for C82U A111C A145U C169A U176G is 0.00703; for C82U A111C A145U C169A U176C it is 0.0139.
The figure for C82U A111G A120C A145C U176A is 0.0156; for C82U A111G A120C A145C U176G it is 0.00487.
The figure for C82U A111G A120C A145C U176C is 0.0213.
Take C82U A111C A145C C169A U176C: the reverse-splicing fitness was 0.00939.
The figure for C82U A111C A145C C169A U176G is 0.00613; for C82U A111C A145C C169A U176A it is 0.0127.
For C82U A111C A145G C150A U176C, the reverse-splicing fitness came to 0.0313.
For the variant C82U A111C A145G C150A U176A, the reverse-splicing fitness is 0.0169.
The figure for C82U A111C A145G C150A U176G is 0.00984; for C82U A111C A145G C150U C169G U176G it is 0.00674.
The figure for C82U A111C A145G C150U C169G U176C is 0.0158; for C82U A111C A145G C150U C169G U176A it is 0.0107; for C82U A111C A145U C150A it is 0.0231.
Regarding C82U A111C A145U C150U, the reverse-splicing fitness is 0.148.
The figure for C82U A111C A145U C150G is 0.0215; for C82U A111G A120C A145C C150A C169A U176G it is 0.00444; for C82U A111G A120C A145C C150A C169A U176C it is 0.00523.
Turning to C82U A111G A120C A145C C150A C169A U176A, the reverse-splicing fitness was 0.0104.
The figure for C82U A111C A145U C150A U176G is 0.00817; for C82U A111C A145U C150A U176A it is 0.0153.
Take C82U A111C A145U C150A U176C: the reverse-splicing fitness came to 0.022.
In the case of C82U A111C A145C C150G C169U U176A, the reverse-splicing fitness was found to be 0.00919.
The figure for C82U A111C A145C C150G C169U U176C is 0.0106; for C82U A111C A145C C150G C169U U176G it is 0.00606.
The figure for C82U A111C A145C C150U U176G is 0.00938; for C82U A111C A145C C150U U176C it is 0.0358.
The figure for C82U A111C A145C C150U U176A is 0.0229; for C82U A111C A145U C150G U176G it is 0.00446; for C82U A111C A145U C150G U176C it is 0.0156.
Consider C82U A111C A145U C150G U176A, for which the reverse-splicing fitness was 0.0108.
The figure for C82U A111C A145C U176G is 0.0186; for C82U A111C A145C U176A it is 0.0676; for C82U A111C A145C U176C it is 0.0915.
The figure for C82U A111C A145G C150G C169G U176G is 0.00571.
The figure for C82U A111C A145G C150G C169G U176A is 0.00912; for C82U A111C A145G C150G C169G U176C it is 0.0117.
With C82U A111C A145G C150A C169G U176A, the reverse-splicing fitness was determined as 0.014.
The figure for C82U A111C A145G C150A C169G U176C is 0.0256.
C82U A111C A145G C150A C169G U176G: the reverse-splicing fitness came to 0.00685.

The values are drawn from the RNAGym collection of RNA variant scans (doi:10.1093/molbev/msab373).
